From patent US20020128178A1, “Use of growth hormone or a growth hormone secretagogue for promoting bone formation” (priority 1996, published 2002)

Tests used:
[1] = test system: fracture-healing in rabbits; conditions: no distraction; cited from earlier work
[2] = test system: distracted tibia (callus distraction) of Yucatan mini-pigs; experiment: Mechanical torsion testing of distracted tibia after callus distraction in GH-treated mini-pigs; assay type: in vivo, Yucatan mini-pig; conditions: at sacrifice
Description: After sacrifice, the right and left limb were dissected. The soft tissue around the joints was removed, and the ends of the tibia were casted in Beracryl. The constructs were placed in a materials testing machine (Zwick, Ulm, Germany), and torsional moments were applied. Resulting displacements and torsional moments were recorded. The test was conducted with a speed of 30° per minute until failure. The system automatically terminated the test at a torque of 20%.
The final bone torsional strength of a mini-pig group treated with growth hormone was investigated relative to a control group.
30 mature female Yucatan mini-pigs were equally distributed into two treatment groups. Mini-pigs in the study group received a daily injection of recombinant porcine growth hormone (r-pGH: 100 μg/kg), the mini-pigs in the control group received sodium chloride as placebo. The left tibiae and fibulae were osteotomized and stabilized with an external fixator. Full weight bearing was permitted. The legs were distracted twice daily at 2 mm/day for 10 days and then allowed to consolidate for 10 days. After sacrifice, torsional moments were applied to the distracted and the contralateral tibia in a material testing machine and the maximum torsional moment was determined. Four animals were removed from the study due to bone infection or surgery failure and data of 2 animals were lost due to test machine failure. A t-test was used to determine differences in maximum torsional moments between the treatment groups.

[3] = test system: healing fracture in dogs; conditions: compared to non-treated dogs; cited from earlier work

**Q.** With growth hormone as the molecule, how does the effect on fracture-healing [1] read?
**A.** no effect

B1: GH: recombinant porcine growth hormone (r-pGH), homologous GH injected daily at 100 μg/kg in mini-pigs (protein, UniProt P01248 27-216, looked up)
Somatotropin: FPAMPLSSLFANAVLRAQHLHQLAADTYKEFERAYIPEGQRYSIQNAQAAFCFSETIPAPTGKDEAQQRSDVELLRFSLLLIQSWLGPVQFLSRVFTNSLVFGTSDRVYEKLKDLEEGIQALMRELEDGSPRAGQILKQTYDKFDTNLRSDDALLKNYGLLSCFKKDLHKAETYLRVMKCRRFVESSCAF
**Q.** For B1, which “maximum torsional moment of distracted tibia” value ([2]; r-pGH 100 μg/kg daily injection, distraction 2 mm/day for 10 days, consolidation 10 days, p=0.001 vs placebo) is on record?
**A.** 19.5±7.8 Nm

**Q.** And the “maximum torsional moment in comparison to the intact contralateral tibia” value ([2]; r-pGH 100 μg/kg daily, p<0.001 vs control)?
**A.** 64±22.4%

**Q.** What about the “higher maximum torsional moment than placebo group” value ([2]; r-pGH 100 μg/kg daily, versus placebo group) of the same molecule?
**A.** 131%

B2: cST: canine somatotropin given to dogs in the study of Buonomo et al. (protein, UniProt P33711 27-216, looked up)
Somatotropin: B1 Somatotropin
**Q.** Which “increase of stiffness of the healing fracture” value [3] does the source give for B2 here?
**A.** 5 fold

**Q.** What about the “increase of strength of the healing fracture” value [3] of the same molecule?
**A.** 3 fold
